This assay deals with wild-type rTpiA (recombinant Streptococcus pneumoniae D39 triosephosphate isomerase) (Streptococcus pneumoniae D39) (UniProt Q04JH4). The assay can be described thus: SPR; Biacore X100; rTpiA immobilised on CM5 chip by amine coupling; plasminogen 6.25-100 nM injected, contact time 120 s, 20 µL/min; running buffer 100 mM HEPES pH 7.4, 150 mM NaCl, 3 mM EDTA, 0.005% surfactant P20; apparent constants. Background: Surface plasmon resonance follows binding to a sensor surface in real time, without labels.
wild-type rTpiA (recombinant Streptococcus pneumoniae D39 triosephosphate isomerase) (Streptococcus pneumoniae D39), sequence (Q04JH4 2-252): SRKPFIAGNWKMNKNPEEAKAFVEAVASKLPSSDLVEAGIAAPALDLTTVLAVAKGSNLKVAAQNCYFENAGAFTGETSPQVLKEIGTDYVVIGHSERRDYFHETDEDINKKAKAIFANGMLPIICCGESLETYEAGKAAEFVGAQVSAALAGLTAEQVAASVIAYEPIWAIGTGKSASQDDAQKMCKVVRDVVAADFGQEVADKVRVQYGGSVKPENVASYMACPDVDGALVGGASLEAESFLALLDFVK

For the substance “human plasma plasminogen (natural protein)”, the Kd was 865 nM; the off-rate constant (koff) (in general, a measure of how fast the partners let go of each other) was 0.00375 s⁻¹; the kon (as a rule, the second-order rate constant of association) turned out to be 4340 M⁻¹ s⁻¹.

Values taken from article PMC10221034 (2023).
